As a reminder, the Kd is a measure of binding affinity in units of concentration. A higher Kd goes with a looser complex. Usually koff stands for the first-order rate constant of dissociation. As a reminder, the kon is a measure of how fast the partners come together. Read a low kon as slower complex formation.

The text below walks through data of patent US20260265780A1.

This test addresses CD8 (protein not named in Table 16).

B1: CD8 binder 97 (VHH) (VHH)
VHH: QVQLVESGGGLVQAGGSLRLSCAASGRTFSGYVMGWFRQAPGKQRKFVAAISRGGLSTSYADSVKGRFTISRDNAKNTVFLQMNTLKPEDTAVYYCAADRSDLYEITAASNIDSWGQGTLVTVSS
In turn, B1 had a Highest Response (nm) of 0.465 nm, a Kd of 5.3 nM, a koff of 0.000272 s⁻¹ and a kon of 51400 M⁻¹ s⁻¹.
